The text below walks through data of US20170355766A1 (Xencor, published 2017).

Assay [1] concerns the target T1, human FcγRIIb receptor protein (R&D Systems) (human, UniProt P31994 46-217).
T1 construct: Analyte injected over antibodies captured on a protein A/G chip (Biacore); also called CD32b
T1 sequence (looked up): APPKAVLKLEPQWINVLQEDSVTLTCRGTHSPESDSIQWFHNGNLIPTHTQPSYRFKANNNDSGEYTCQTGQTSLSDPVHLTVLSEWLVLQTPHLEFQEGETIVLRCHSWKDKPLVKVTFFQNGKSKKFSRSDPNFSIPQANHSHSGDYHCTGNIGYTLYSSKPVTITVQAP
The assay can be described thus: SPR (Biacore). In general terms: Surface plasmon resonance follows binding to a sensor surface in real time, without labels.

The target of a further assay is T2, FcγRIIaR (human, UniProt P12318).
T2 construct: recombinant receptor protein with 6xHis and GST tags; also called R131 FcγRIIa
T2 sequence (receptor, looked up): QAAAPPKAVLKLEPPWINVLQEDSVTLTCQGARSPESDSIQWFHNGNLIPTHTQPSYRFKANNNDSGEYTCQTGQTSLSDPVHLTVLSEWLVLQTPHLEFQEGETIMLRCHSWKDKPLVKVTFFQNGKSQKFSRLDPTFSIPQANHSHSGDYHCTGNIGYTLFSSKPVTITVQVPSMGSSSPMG
The assay can be described thus: SPR (Biacore).

B1: D265E (antibody, human IgG1, kappa)
heavy: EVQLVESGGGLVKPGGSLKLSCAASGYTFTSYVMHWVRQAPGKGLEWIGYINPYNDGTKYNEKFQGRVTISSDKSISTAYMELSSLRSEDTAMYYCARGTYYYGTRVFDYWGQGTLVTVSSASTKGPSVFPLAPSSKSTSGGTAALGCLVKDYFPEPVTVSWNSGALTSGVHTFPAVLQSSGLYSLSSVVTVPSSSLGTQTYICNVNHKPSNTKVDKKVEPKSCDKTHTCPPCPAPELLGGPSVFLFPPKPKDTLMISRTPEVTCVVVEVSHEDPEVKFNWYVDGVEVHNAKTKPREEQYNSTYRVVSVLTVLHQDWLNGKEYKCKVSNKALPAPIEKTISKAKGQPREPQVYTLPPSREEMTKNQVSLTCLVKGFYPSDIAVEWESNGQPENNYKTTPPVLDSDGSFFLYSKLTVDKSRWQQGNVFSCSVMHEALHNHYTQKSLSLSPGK
light: DIVMTQSPATLSLSPGERATLSCRSSKSLQNVNGNTYLYWFQQKPGQSPQLLIYRMSNLNSGVPDRFSGSGSGTEFTLTISSLEPEDFAVYYCMQHLEYPITFGAGTKLEIKRTVAAPSVFIFPPSDEQLKSGTASVVCLLNNFYPREAKVQWKVDNALQSGNSQESVTEQDSKDSTYSLSSTLTLSKADYEKHKVYACEVTHQGLSSPVTKSFNRGEC
notes: HuAM4G7 IgG1 Fc variant
With B1, the “Fold FcγRIIb” value in assay [1] was determined as 0.417 fold. The “Fold FcγRIIaR” value with FcγRIIaR came to 0.307 fold.

B2: G236W (antibody, human IgG1, kappa)
heavy: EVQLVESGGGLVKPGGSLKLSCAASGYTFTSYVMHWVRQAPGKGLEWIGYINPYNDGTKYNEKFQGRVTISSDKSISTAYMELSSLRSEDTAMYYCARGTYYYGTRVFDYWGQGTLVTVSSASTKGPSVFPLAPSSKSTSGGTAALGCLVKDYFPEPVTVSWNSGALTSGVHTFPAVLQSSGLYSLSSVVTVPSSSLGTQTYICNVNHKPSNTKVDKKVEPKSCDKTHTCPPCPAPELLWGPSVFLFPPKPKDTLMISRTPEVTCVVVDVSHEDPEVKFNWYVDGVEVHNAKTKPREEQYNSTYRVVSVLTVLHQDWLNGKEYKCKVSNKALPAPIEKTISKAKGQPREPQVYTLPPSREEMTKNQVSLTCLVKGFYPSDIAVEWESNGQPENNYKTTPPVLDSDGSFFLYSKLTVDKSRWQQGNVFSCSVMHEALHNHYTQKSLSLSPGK
light: DIVMTQSPATLSLSPGERATLSCRSSKSLQNVNGNTYLYWFQQKPGQSPQLLIYRMSNLNSGVPDRFSGSGSGTEFTLTISSLEPEDFAVYYCMQHLEYPITFGAGTKLEIKRTVAAPSVFIFPPSDEQLKSGTASVVCLLNNFYPREAKVQWKVDNALQSGNSQESVTEQDSKDSTYSLSSTLTLSKADYEKHKVYACEVTHQGLSSPVTKSFNRGEC
notes: HuAM4G7 IgG1 Fc variant
On to B2, for which the “Fold FcγRIIb” value in assay [1] is 0.147 fold. For the same molecule, the “Fold FcγRIIaR” value with FcγRIIaR stood at 0.0859 fold.

B3: G236Q (antibody, human IgG1, kappa)
heavy: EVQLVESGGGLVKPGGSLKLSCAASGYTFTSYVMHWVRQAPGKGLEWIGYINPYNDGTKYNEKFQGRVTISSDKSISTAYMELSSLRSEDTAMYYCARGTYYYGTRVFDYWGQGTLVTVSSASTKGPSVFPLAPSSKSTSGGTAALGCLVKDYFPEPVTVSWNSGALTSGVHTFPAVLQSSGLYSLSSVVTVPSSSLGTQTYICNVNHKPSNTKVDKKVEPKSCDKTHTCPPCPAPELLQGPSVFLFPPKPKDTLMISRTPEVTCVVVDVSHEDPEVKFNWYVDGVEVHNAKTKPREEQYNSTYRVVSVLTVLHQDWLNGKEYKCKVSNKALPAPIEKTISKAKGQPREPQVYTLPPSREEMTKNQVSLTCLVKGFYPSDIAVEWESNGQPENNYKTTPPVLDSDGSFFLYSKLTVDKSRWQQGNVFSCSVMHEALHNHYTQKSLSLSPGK
light: DIVMTQSPATLSLSPGERATLSCRSSKSLQNVNGNTYLYWFQQKPGQSPQLLIYRMSNLNSGVPDRFSGSGSGTEFTLTISSLEPEDFAVYYCMQHLEYPITFGAGTKLEIKRTVAAPSVFIFPPSDEQLKSGTASVVCLLNNFYPREAKVQWKVDNALQSGNSQESVTEQDSKDSTYSLSSTLTLSKADYEKHKVYACEVTHQGLSSPVTKSFNRGEC
notes: HuAM4G7 IgG1 Fc variant
On to B3, for which the “Fold FcγRIIb” value in assay [1] turned out to be 0.147 fold. In addition, the “Fold FcγRIIaR” value with FcγRIIaR turned out to be 0.0859 fold.

B4: G236H (antibody, human IgG1, kappa)
heavy: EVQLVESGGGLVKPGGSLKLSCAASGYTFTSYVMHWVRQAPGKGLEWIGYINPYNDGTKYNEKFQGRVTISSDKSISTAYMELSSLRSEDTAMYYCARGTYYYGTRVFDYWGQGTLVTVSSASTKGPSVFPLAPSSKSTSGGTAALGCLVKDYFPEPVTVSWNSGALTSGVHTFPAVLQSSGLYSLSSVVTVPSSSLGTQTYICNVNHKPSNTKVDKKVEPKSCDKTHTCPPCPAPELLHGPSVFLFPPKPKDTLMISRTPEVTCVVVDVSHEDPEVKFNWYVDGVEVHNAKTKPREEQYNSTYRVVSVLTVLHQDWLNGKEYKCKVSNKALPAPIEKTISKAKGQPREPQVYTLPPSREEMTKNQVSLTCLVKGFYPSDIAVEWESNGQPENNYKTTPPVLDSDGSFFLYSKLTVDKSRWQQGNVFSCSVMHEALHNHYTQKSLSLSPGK
light: DIVMTQSPATLSLSPGERATLSCRSSKSLQNVNGNTYLYWFQQKPGQSPQLLIYRMSNLNSGVPDRFSGSGSGTEFTLTISSLEPEDFAVYYCMQHLEYPITFGAGTKLEIKRTVAAPSVFIFPPSDEQLKSGTASVVCLLNNFYPREAKVQWKVDNALQSGNSQESVTEQDSKDSTYSLSSTLTLSKADYEKHKVYACEVTHQGLSSPVTKSFNRGEC
notes: HuAM4G7 IgG1 Fc variant
Consider B4, for which the binding result in assay [1] is reported as “no binding”. Moreover, in the assay with FcγRIIaR, the “Fold FcγRIIaR” value turned out to be 0.135 fold.

B5: G236P (antibody, human IgG1, kappa)
heavy: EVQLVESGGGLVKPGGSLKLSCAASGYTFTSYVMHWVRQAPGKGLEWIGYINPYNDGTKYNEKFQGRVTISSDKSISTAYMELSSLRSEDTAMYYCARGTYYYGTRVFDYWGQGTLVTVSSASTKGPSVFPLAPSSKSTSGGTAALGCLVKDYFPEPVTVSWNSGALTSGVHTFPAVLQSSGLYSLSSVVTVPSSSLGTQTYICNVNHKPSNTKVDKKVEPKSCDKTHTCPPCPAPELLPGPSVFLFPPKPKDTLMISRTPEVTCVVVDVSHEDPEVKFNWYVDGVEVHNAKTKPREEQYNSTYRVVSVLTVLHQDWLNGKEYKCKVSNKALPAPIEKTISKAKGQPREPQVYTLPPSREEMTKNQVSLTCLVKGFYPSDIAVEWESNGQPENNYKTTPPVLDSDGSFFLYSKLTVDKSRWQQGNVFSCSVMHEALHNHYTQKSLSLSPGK
light: DIVMTQSPATLSLSPGERATLSCRSSKSLQNVNGNTYLYWFQQKPGQSPQLLIYRMSNLNSGVPDRFSGSGSGTEFTLTISSLEPEDFAVYYCMQHLEYPITFGAGTKLEIKRTVAAPSVFIFPPSDEQLKSGTASVVCLLNNFYPREAKVQWKVDNALQSGNSQESVTEQDSKDSTYSLSSTLTLSKADYEKHKVYACEVTHQGLSSPVTKSFNRGEC
notes: HuAM4G7 IgG1 Fc variant
With B5, in assay [1], the “Fold FcγRIIb” value was 0.147 fold. Further, in the assay with FcγRIIaR, the “Fold FcγRIIaR” value is 0.0859 fold.

B6: G236E/S267E (antibody, human IgG1, kappa)
heavy: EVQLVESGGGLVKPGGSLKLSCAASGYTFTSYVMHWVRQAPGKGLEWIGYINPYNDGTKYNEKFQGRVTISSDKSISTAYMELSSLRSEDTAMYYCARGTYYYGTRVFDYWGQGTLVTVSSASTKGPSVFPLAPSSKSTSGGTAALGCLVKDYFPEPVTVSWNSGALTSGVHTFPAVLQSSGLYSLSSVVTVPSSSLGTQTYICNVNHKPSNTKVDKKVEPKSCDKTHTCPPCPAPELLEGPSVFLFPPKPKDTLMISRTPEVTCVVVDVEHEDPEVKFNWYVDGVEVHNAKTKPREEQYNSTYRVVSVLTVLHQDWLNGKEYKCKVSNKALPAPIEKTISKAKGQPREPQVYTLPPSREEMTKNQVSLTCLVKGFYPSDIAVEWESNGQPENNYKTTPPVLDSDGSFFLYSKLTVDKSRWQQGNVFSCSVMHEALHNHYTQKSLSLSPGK
light: DIVMTQSPATLSLSPGERATLSCRSSKSLQNVNGNTYLYWFQQKPGQSPQLLIYRMSNLNSGVPDRFSGSGSGTEFTLTISSLEPEDFAVYYCMQHLEYPITFGAGTKLEIKRTVAAPSVFIFPPSDEQLKSGTASVVCLLNNFYPREAKVQWKVDNALQSGNSQESVTEQDSKDSTYSLSSTLTLSKADYEKHKVYACEVTHQGLSSPVTKSFNRGEC
notes: HuAM4G7 IgG1 Fc variant
Regarding B6, in assay [1], the “Fold FcγRIIb” value turned out to be 11.4 fold. For the same molecule, the “Fold FcγRIIaR” value with FcγRIIaR came to 36.5 fold.

B7: G236M (antibody, human IgG1, kappa)
heavy: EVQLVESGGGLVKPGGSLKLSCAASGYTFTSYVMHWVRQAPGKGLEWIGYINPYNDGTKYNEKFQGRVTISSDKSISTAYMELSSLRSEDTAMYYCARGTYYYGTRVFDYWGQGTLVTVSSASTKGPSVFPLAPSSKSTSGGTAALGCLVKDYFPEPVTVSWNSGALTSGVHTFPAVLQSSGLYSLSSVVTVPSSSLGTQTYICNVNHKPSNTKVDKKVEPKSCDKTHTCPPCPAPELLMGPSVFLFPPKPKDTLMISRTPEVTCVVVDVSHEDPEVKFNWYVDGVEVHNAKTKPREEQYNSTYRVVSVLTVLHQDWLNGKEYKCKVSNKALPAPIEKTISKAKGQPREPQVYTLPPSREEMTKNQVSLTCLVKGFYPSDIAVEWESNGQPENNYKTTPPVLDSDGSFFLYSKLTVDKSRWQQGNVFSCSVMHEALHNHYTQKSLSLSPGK
light: DIVMTQSPATLSLSPGERATLSCRSSKSLQNVNGNTYLYWFQQKPGQSPQLLIYRMSNLNSGVPDRFSGSGSGTEFTLTISSLEPEDFAVYYCMQHLEYPITFGAGTKLEIKRTVAAPSVFIFPPSDEQLKSGTASVVCLLNNFYPREAKVQWKVDNALQSGNSQESVTEQDSKDSTYSLSSTLTLSKADYEKHKVYACEVTHQGLSSPVTKSFNRGEC
notes: HuAM4G7 IgG1 Fc variant
Turning to B7, in assay [1], the “Fold FcγRIIb” value was 0.147 fold. The “Fold FcγRIIaR” value with FcγRIIaR came to 0.0859 fold.

B8: G237Q (antibody, human IgG1, kappa)
heavy: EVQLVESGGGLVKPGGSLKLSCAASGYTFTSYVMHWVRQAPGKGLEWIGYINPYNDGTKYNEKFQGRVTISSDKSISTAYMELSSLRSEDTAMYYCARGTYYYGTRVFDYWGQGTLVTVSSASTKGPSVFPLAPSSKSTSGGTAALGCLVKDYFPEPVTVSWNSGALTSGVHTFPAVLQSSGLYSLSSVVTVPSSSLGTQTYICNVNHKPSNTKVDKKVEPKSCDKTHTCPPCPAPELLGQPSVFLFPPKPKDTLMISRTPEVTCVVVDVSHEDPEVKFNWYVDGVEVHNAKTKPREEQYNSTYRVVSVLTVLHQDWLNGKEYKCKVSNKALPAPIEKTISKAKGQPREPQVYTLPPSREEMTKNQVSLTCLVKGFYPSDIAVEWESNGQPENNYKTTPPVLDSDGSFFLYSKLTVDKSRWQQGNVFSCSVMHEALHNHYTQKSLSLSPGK
light: DIVMTQSPATLSLSPGERATLSCRSSKSLQNVNGNTYLYWFQQKPGQSPQLLIYRMSNLNSGVPDRFSGSGSGTEFTLTISSLEPEDFAVYYCMQHLEYPITFGAGTKLEIKRTVAAPSVFIFPPSDEQLKSGTASVVCLLNNFYPREAKVQWKVDNALQSGNSQESVTEQDSKDSTYSLSSTLTLSKADYEKHKVYACEVTHQGLSSPVTKSFNRGEC
notes: HuAM4G7 IgG1 Fc variant
Regarding B8, the “Fold FcγRIIb” value in assay [1] was found to be 0.147 fold. In addition, the “Fold FcγRIIaR” value with FcγRIIaR is 0.0859 fold.
